Measured values: the supplement of paper PMC10567573
± gives the standard deviation.

Test: protein stability index of a GFP-peptide fusion (GPS, HEK-293T) (PSI 1-6); higher = more stable
Conditions: c terminus: a fixed tail appended
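Also: 24-mer peptide tiles fused after GFP, lentivirally expressed, FACS-sorted into six equal bins by GFP/DsRed ratio, decoded by Illumina sequencing, PSI is the read-weighted mean bin number.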

Sequence	protein stability index (treatment: DMSO)	protein stability index (treatment: MLN4924 1 uM, 8 h)
LLPLQREPLYNWQATKASLKERFA [BTBD1]	2.8 ± 0.22	2.82 ± 0.2
LLRLSKHGPGHETPMTIPEFFRES [ACSBG2]	2.73 ± 0.1	3.06 ± 0.25
LLVGRYPFHDSDPSALFSKIRRGQ [TRIB1]	2.22 ± 0.23	2.46 ± 0.53
LLWSDPADNKIVSHLLVAEPEKIY [ESRRG]	2.36 ± 0.3	2.55 ± 0.16
LMISENNFLFRNAASTLTERPCYN [ANKRD40]	2.16 ± 0.31	2.36 ± 0.27
LMMCFILPTLVPWYFWGETFQNSV [SCD]	2.94 ± 0.69	3.24 ± 0.075
LMVDFAQERQMLQALKFLPVPSAP [FSD1]	2.21 ± 0.081	2.22 ± 0.3
LNEEQTLQEVPTGLDSISHDSANC [ETS2]	5.54 ± 0.073	5.33 ± 0.18
LNKCFIKVPREKDEPGKGGFWRID [FOXJ1]	2.98 ± 0.2	2.98 ± 0.096
LPAGAGAPKAGLEEAPAVTAGLKI [TNFSF13B]	4.65 ± 0.3	4.65 ± 0.15
LPCNPCATTNASGNSCGPCGTSQK [KRT34]	4.71 ± 0.12	4.86 ± 0.23
LPEPSKRGPPHGWPKLCPCLRSGI [MYCL]	2.04 ± 0.64	2.85 ± 0.054
LPHPGLQVATSPDFDGKLKDIAGE [ATL3]	4.91 ± 0.25	5.11 ± 0.26
LPKISDPNFVKDLEEDLYELFKKD [PI4K2A]	3.72 ± 0.24	3.88 ± 0.31
LPNFAFSVPLAYFLLSQQTDLPEC [TCF25]	2.72 ± 1.8	2.94 ± 0.38
LPSDGDHQVPTTAGNKAALLDQIR [WASL]	4.73 ± 0.24	4.1 ± 0.84
LQAALQVLELHHSKLDTTKALNLL [VPS39]	2.23 ± 0.27	2.29 ± 0.21
LQDMLDGFIKKFVLCPECENPETD [EIF5]	3.19 ± 0.43	3.34 ± 0.12
LQGCSSIGLRLVLEYLYTANVTLS [KLHL14]	3.07 ± 0.45	2.93 ± 0.67
LQIYQYVPKDQRLQAIKAAIMLLP [DLC1]	2.64 ± 0.62	2.41 ± 0.58
LQLNARSFMMGQGGEAAHHTRSPY [NEUROD6]	2.99 ± 0.22	3.37 ± 0.32
LQRNPKHELTAKYLNYYQGMLDVA [P3H4]	2.3 ± 0.13	2.39 ± 0.41
LRELGHAEHEITELTATFTKFDRD [PKD2L1]	4.48 ± 0.28	4.59 ± 0.25

Sequence	protein stability index (treatment: DMSO)	protein stability index (treatment: MLN4924 1 uM, 8 h)
LRRSVEKYNSARADFEQKMLDSAL [FCHO1]	3.29 ± 0.54	3.35 ± 0.14
LSQPVTYQAFRECTLETTVHASGW [BCL2L13]	2.44 ± 0.46	2.48 ± 0.4
LSSEMNTSTVNSAREELMESRMRI [LMNB1]	4.48 ± 0.29	4.27 ± 0.17
LSSIKRDTNSIAKAIKARGEVIHC [STX11]	3.22 ± 0.19	3.32 ± 0.2
LTMAATFDDCLYALCVVDTIKRSS [GFOD1]	2.54 ± 0.72	2.68 ± 0.57
LVELLQPFKQVAEMLSASRYPTIS [ZBED1]	2.65 ± 0.66	2.29 ± 0.57
LVFEHVDQDLRTYLDKAPPPGLPA [CDK4]	2.7 ± 0.36	2.88 ± 0.34
LWPTPGHLSPLVVHRQLSHLYAEP [ESR2]	2.38 ± 0.24	2.54 ± 0.3
LYLQLAICSSLQNLEKTIFCLQKL [C8orf76]	3.12 ± 0.69	3.2 ± 0.099
MAEEQGRERDSVPKPSVLFLHPDL [ALG2]	4.36 ± 0.15	4.5 ± 0.32
MAHVDFRPPAYSPAQRSHTYTHGL	2.8 ± 0.25	2.88 ± 0.32
MASDTPESLMALCTDFCLRNLDGT [ZER1]	3.88 ± 0.14	3.43 ± 0.41
MATSRYEPVAEIGVGAYGTVYKAR [CDK4]	3.2 ± 0.094	3.2 ± 0.24
MCKADLSRNFIERNHMENGGDHRY [TRIM29]	3.41 ± 0.25	3.33 ± 0.26
MDLSERQEVSSVRSLSSTGSLPSH [DLC1]	4.61 ± 0.25	4.47 ± 0.29
MDPPNPEEVKTPEEEMRSHYVAQT [GAGE1]	5.44 ± 0.087	5.4 ± 0.2
MEDSFLQSFGRLSLQPQQQQQRQR [N4BP2L1]	4.69 ± 0.3	4.63 ± 0.25
MENIGAIQVLPKLSSSIIHEIDSI [KCNAB2]	3.53 ± 0.34	3.51 ± 0.29
MEVAMVSAESSGCNSHMPYGYAAQ [KCNA4]	2.95 ± 0.15	3.32 ± 0.5
MFFTCGPNEAMVVSGFCRSPPVMV [FLOT1]	2.93 ± 0.52	2.9 ± 0.74
MFIPETKGCSLEQISMELAKVNYV [SLC2A12]	2.33 ± 0.62	2.39 ± 0.31
MGCTLSAEDKAAVERSKMIDRNLR [GNAI1]	4.64 ± 0.32	4.54 ± 0.1
